In patent publication US20050048066A1 (published 2005):

molecular target: HLA-DR1 (human); assay: competitive binding assay; DR1 format not described

| IC50 [µM] | Binder |
| --- | --- |
| 11.2 | QLIQLINVDEVNQI (peptide, UniProt P02708 56-69, looked up, range 36-49; also called AChRα 36-49) [AChRα peptide 36-49] |
| 11.7 | KYVAMVMDHILLGV (peptide, UniProt P02708 420-433, looked up) [AChRα peptide 400-413] |
| 1.75 | HFVMQRLPLYFIVN (peptide, UniProt P02708 224-237, looked up) [AChRα peptide 204-217] |
